Results from the nanobody polyreactivity screen of Harvey et al. (2022).

Assay: yeast display, Sf9 membrane polyspecificity reagent, FACS + sequencing; frameworks hold sequencing errors
Summary of the method: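 Nanobodies from a synthetic yeast display library (Saccharomyces cerevisiae BJ5465), induced 36–48 hours with galactose, were stained 1 hour at 4 °C with 10% biotinylated, detergent-solubilized Sf9 membrane reagent, enriched on streptavidin microbeads, then FACS-sorted. Anti-HA (expression) and streptavidin (reagent binding) fluorescence set low and high (top ~1%) gates. Polyreactivity labels come from the gate of origin. Genes were colony-PCR amplified, MiSeq 2 × 250 sequenced and filtered by CDR length.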

| Sequence | polyreactivity (PSR sort gate) |
| --- | --- |
| QVQLVESGGALVQAGGSLRLSCAASGSIFYKYTMGWYRQAPGKERELVAAISRSGGSTYYADSVKGRFTISRDNAKNTVYLQMNSLKTEDTAVYYCATTGRVPGEYWGQGTQVTVSS | high polyreactivity |
| QVQLVESGGGLVQAGGSLRLSCAASGSIFYYNAMGWYRQAPGKERELVAAISFRASSTYYADSVKGRFTISRDNAKNTVYLQMNSLKPEDTAVYYCASSHWHYIPRHHPYGDDYCGQGTQVTVSS | low polyreactivity |
| QVQLVESAGGLVQAGGSLSLSCAASGRIFYSYAMGWYRQAPGKERELVAAISSAGSTYYADSVKGRFTMSRDNEKNTVYLQTNSLKPEDTAVYYCAAYRAGNSYYPRLNYWGQGTQVTVSS | high polyreactivity |
| QVQLVESGGGLVQAGGSLRLSCAASGRTFAAYAMGWYRQAPGKERELGAAISSSSGNTYYADSVKGRFTISRDNAKNTVYLQMYSLKPEDTAVYYCNAQRRFNANYWYDYWGQGTQVTVAS | high polyreactivity |
| QVQLVESGRGLVQAGGSLRLSCAASGTTCLYYTMGWYRQAPGKERELVASISYSGGRTYYADSVKGRFTISRDNAKNTVYLQMNSLKPEDTAVYYCNKKRYYDGYDYWGQGTQVTVSS | high polyreactivity |
| QVQLVDSGGGLVQAGGSLRLSCAASGRIFSRYAMGWYRQAPGKERELVASISYSGGSTNYADSVKGRFTISRDNAKNTFYLQMNSLKPEDTAVYYCAAGQYSYRRRYNYWGQGTQVTVSS | high polyreactivity |
| QVQLVESGGGLVQAGGSLRLSCAASGRTFRSNAMGWYRQAPGKERELVATISGRGGSTYYADSVKGRFTISRDNAKNTVYLQMNSLKPEDTAVYYCAKRTTLIRDYEYWGQGTQVTVSS | high polyreactivity |
| QVQLVESGGGLVQAGGSLRLRCAASGSTFAWYAMGWYRQAPGKERELVAAISRTGRTYYADSVKGRFTISRDNAKNTVYLQMNSLKPEDTAVYYCAARIERFYRDQRYDYWGQGTQVTVSS | high polyreactivity |
| QVQLVESGGGLVQAGGSLRLSCAASGSIFHNYDMGWYRQAPGKERELVADISRGGDTNYADSVKGRFTISRDNAKNTVYLQMNSLKPEDTAVYYCNATYWILDSPWWRETFDYWGQGTQVTVSS | low polyreactivity |
| QVQLVEAGGGLVQAGGSLRLSCAASGYIFAYYAMGWYRQAPGKERELVATIRSGGSTNYADSVKGRFTISRDNGKNTVYLQMNSLKPEDTAVYYCARDDATAGDYWGQGTQVTVSS | low polyreactivity |
| QVQLVESGGGLVQAGGSLRLSCAASGRIFGYNAMGWYRQAPGKERELVAAISSTGNTYYADSVKGRFTISRDNAKNTVYLQMNSLKPEDTAVYYCARSWLYSQRRYDYWGQGTQVTVSS | low polyreactivity |
| QVQLVESGGGLVQAGGSLRLSCAASGRTFGGYAMGRYRQAPGKDRQLVASISWSGGSTYYADSVKGRFTISRDNAKNTVYLQMNSLKPEDTAVYYCAARPYLSRSTRMDYWGQGTQVTVSS | low polyreactivity |
| QVQLVESGGGLVQAGGSLRLSCAASGYTFSRYAMGWYRQAPGKERELVAAITSRGGRTYYADSVKVRFTISRDNAKNTVFLQMNSLKPEDNAVYYCAADVIFWRTGYDYWGPGTQVTVSS | high polyreactivity |
| QVQLVESGGGLVQAGGSLRLSCVASGRIFSVYAMGWYRQAPAKERELVAGITSSGGSTYYADSVKGRFTISRDNAKNTVYLQMNSLKPEDTAVYYCAAVSEYYKGYDYWGQGTQVTVSS | high polyreactivity |
| QVQLVESGGGLVQAGGSLRLSCAASGFIFRYYDMGWYRQAPGKERELVAAISWSGCSTYYADSVKGRFTISRDNAKNTVYLQMNSLKPEYTAVYYCAAERYAMLFYAEDYWGQGTQVTVSS | low polyreactivity |
| QVQLVESGGGLVQAGGSLRLSCAASGSIFNYNAMGWYREAPRKERELVAAITWRGGTTSYADSVKGRFSISRDNAKNTVYLQMNSLKPEDTAVYYCNAYQWRHRYTMYYWGQGTQVTVSS | high polyreactivity |
| QVQLVESGGGLVQAGGSLRLSCAASGFIFRVYAMGWYRQAPGKERELVATITYDGGRTYYADSVKGRFTISRDNAKNTVYLQMNSLKPEDTAVFGYWGQGTQVTVSS | low polyreactivity |
| QVQLVESGGGLVQAGGSLRLSCPASGSTFSYNMGWYRPAPGKERELVAAISGSGGSTYADSVKGRFTISRDNAKKTVYLQMNSLKPEDTAVYYCATVRYWVHEYGFWGLGTQVTVSS | high polyreactivity |
| QVQLVESGGGLVQAGGSLRLSCAASGRIFIVYPMGWYRQAPGKERELVATITRGGSTNYADSVKGRFTISRDNAKNTVYLQMNSLKPEDTAVYYCAKGWTNRYPWPGRFRTLYDYWGQGTQVTVSS | low polyreactivity |
| QVQLVESGGGLVQAGGSLRLSCAASGSIFRDYVMGWYRQAPGKERELVAAISGNDGSTYYADSVKGRFTISRDNAKNTVYLQLNSLKPEDTAVYYCNADEASTFPQFYSYLDFDYWGQGTQVTVSS | low polyreactivity |
| QVQLVESGGGLVQAGGSLRLSCAASGIIFSPYAMGWYRQAPGKERELVAAINFSTGRTYYADSVKGRFTISRDNAKNTVYLQMNSLKPEDTAVYYCAAGKYPYVFRGGYDYWGQGTQVTVSS | low polyreactivity |

| Sequence | polyreactivity (PSR sort gate) |
| --- | --- |
| QVQLVESGGGLVQAGGSLRLSCAASGSTFVTYAMGWYRQAPGKERELVAAISYSGGSTYADSVKGRFTISRDNAKNTVYLQMNSLKPEDTAVYYCNSDTSVDVRFDYWGQGTQVTVSS | low polyreactivity |
| QVQLVESGGGLVQAGGSLRLSCAASGFIFGANAMGWYRPAPGKERELVASINGSGGSTFYADSVKGRFTISRDNAKNTVYLQMNSLNPEDTAVYYCAAPCFCWFTTGGYYYWGQGTQVTVSS | low polyreactivity |
| QVQLVESGGGLVQAGGSLRLSCAASGITFETYAMGWYRPAPGTVRELVAAISSGTDDTYYADSVKGRFTISRDNATNTVYLQMNSLKPEDTAVYYCAALGYATGSWRYYYWGQGTQVTVSS | low polyreactivity |
| QVQLVESGGGLVQAGGSLRLSCAASGSTIRHYAMGWYRQAPGKERELVAAISYSGGSTYYADSVKGRFTISRYNAKNNVYLQMNSLKPEDTAVYYCAARSPSKMGYWGQGTQVTVSS | high polyreactivity |
| RVQLVESGGGLVQAGGSLRLSCAASGSIFLIYAMGWYRQAPGKERELVAAISTGDSTYYADSVKGRFTISRDNAKNTVYLQMNSLKPEDTAVYYCAADTYSYEVPWWSAGMDYWGQGTQVTVSS | high polyreactivity |
| QVQLVESGGGLVQAGGSLRLSCAASGRTFSSYAMGWYRPAPGKERELVAAITKRAGNTYYADSVKGRFTISRDNAKNTVYLQMNSLKPEDTAVYYCAAGWERFRNYNYWGQGTQVTVSS | high polyreactivity |
| QVQLVESGGGLVQAGGSLRLSCAASGIIFWPYAMGWYRQAPGKERELVASISTGGSTHYADSVKGRFTISRDNAKNTVYLQLNSLKPEDTAVYYCNADVGPTYSYDYWGQGTQVTVSS | low polyreactivity |
| QVQLVESGGGLVQAGGSHRLSCAASGGTFRSNAMGWYRQAPGKERELVAAITSNGGRTYYADSVKGRFTISRDNAKNTVYLQMNSLKPEDTAVYYCAALGGYRRPLYGYDYWGQGTQVTVSS | high polyreactivity |
| QVQLVESGGGLVQAGGSLRLSCAASGFTFATYAMGWYRQAPGKERELVAAITYRGGRTYYADSVKGRFTISRDNAKNTVYLQMNSLKPEDTAVYYCNTVYPRRLIFGYWGQGTQVTVSS | high polyreactivity |
| QVQLVESGGGLVQAGGSLRLSCAASGLTFRYYGMGWYRQAPGKERELVAAITSSGGSTRYADSVKGRFTISRDNAKNTVYLQMNSLKPEDTAVYYCAASTWYGYDYWGQGTQVTVSS | high polyreactivity |
| QVQLVESGGGLVQAGGSLRLSCAASGSTFSRNAMGWYRQAPGKERELVAAINYSGGITYYADSVKGRFTISRDNAKNTVYLQMNSLKPADTAVYYCAKRGIGDPGQHPLGFGYWGQGTQVTVSS | low polyreactivity |
| QVQLVESGGGLVQAGGSLRLSCAASGSTFAGNAMGWYRQAHGKERELVAALDSSTGSTYYAYSVKGRFTISRDNAKNTVYLQMNSVKPEDTAVYYWNKTSFLVKLDYWGQGTQVTVSS | low polyreactivity |
| QVQLVESGGGLVQAGGSLRLSCAASGSIFNYYAMGWYRQAPGKERELVAAIRSTGSTNYADSVKGRFTISRDNAKNTVYLQMNSLKPEDTAVYYCATDVSDWLYFAEHYYWGQGTQVTVSS | low polyreactivity |
| QVQLVESGGGLVHAGGSLRLSCAASGLIFKTYTMGWYRQAPGKEREFVAAITTSGGSTYYADSVKGRFTISRDNAKNTDYVEMNRLKPEETAVYFCAAEGYTDATQSLFYYWGQGTQVTVSS | high polyreactivity |
| QVQLVESGGGLVQAVGSLSLSCAASGLTLGSYAKGAYRQAPGKERELVAAISRRSGRTYYADSVKGLFTISRDNAKNTVYLQINSLKPEDTAGFYCNRGYTAQVYTEFDYWGQGTQVTVSS | low polyreactivity |
| QVQLVESGGGLVQAGGSLRLSCAASGSIFAHYTMGWYRQAPGKERELVAAISGSGGSTYYADSVKGRFTISCDNAKNTVYLQMNSLKPEDTAVYYCNKRYRPVGPYDYWGQGTQVTVSS | high polyreactivity |
| QFQLLESGGGLVQAGGSLRLSCAASGRTFSYNAMGWYRKAPGIERELVAAITGGTASTYYADSVKGRFTISRDNAKNPVYFQMNSLKPEETAVYYCNRASVFHYPWYYYWGQGTQVTVSS | high polyreactivity |
| QVQLVESGGGLVQAGGSLRLSCAASGFTFDYNAMGWYRQAPGKERELVAVISSSGSRTYYADSVKGRFTISRDIAKITVYLQINSLNPEDTAVYYCAAARIGTRDYWGQGTQVSVSS | high polyreactivity |
| QVQLVESGGGLVQAGGSLRLSCAASGSIFSLYAMGWYRQAPGKERELVAAISQSGDSTFYADSVKGRFTISRDHAKNTVYLQMNSLKPEYTAVSYCAADPRNKAWKWDDYWGQGTQVTVSS | low polyreactivity |
| QVQLVESGGGLVQAGGSLRLSCAASGFIFSFYVMGWYRQAPGKERELVAAISTSGASTYYADSVKGRFTISRDNAKNTVYLQMNSLKPEDTAVFYCNVVYRYGGYNYWGQGTQVTVSS | high polyreactivity |
